Assay results as given in doi:10.1101/2025.08.25.672131, “A basic leucine zipper uses a dimer pathway to locate its targets in DNA mixtures”.

T1: Jun bZIP-ΔLZ (human, UniProt P05412 246-284)
T1 chain: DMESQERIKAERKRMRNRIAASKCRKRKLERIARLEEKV

T2: CREB-bZIP-ΔLZ (human, UniProt P16220-1 277-315, C300S;C310S)
T2 chain: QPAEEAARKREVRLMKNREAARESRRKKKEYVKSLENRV

B1: Alexa Fluor 488 target for Jun, JunD, Fos (dsDNA)
DNA 1: GGATGAGTCATTGG
DNA 2: CCAATGACTCATCC
B2: Alexa Fluor 488-Comp (dsDNA)
DNA 1: GGCTAAAGCATTCT
DNA 2: AGAATGCTTTAGCC

What was measured:
[1] = biological target: T1, Jun bZIP-ΔLZ; assay: fluorescence anisotropy; monomer; Stopped-flow at 25 C; assay buffer not stated in the material (protein storage: 10 mM MES pH 6.5 or, for the forced-monomer bZIP-ΔLZ prep, 10 mM HEPES pH 7.4, with 150 mM NaCl, 10 mM MgCl2; 0.05% Tween-20 in the MES buffer); details: protein: recombinant; tags: N-terminal G left after TEV cleavage; label: 5' Alexa Fluor 488; blunt
[2] = biological target: T2, CREB-bZIP-ΔLZ; assay: as above; details: protein: recombinant; tags: N-terminal G left after TEV cleavage; label: 5' Alexa Fluor 488; blunt

Binder	Kd [1] [µM]	Kd [2] [µM]
B1	0.22 ± 0.03	–
B2	–	440 ± 30
